Source: patent US7338938B2, “Methods for treating a patient undergoing chemotherapy” (University of Southern California, priority 1999, dated 2008)
“Also recorded” adds a separate entry of the source. Non-standard residues stand in square brackets, D forms with d. No end group written: not given here. Phe(4-NH2) = Nc1ccc(C[C@H](N)C(=O)O)cc1

Columns and labels:
[1] = Tests of AII fragments for effectiveness (method not described); settings: test not specified
[2] = system: mice injected with 150 mg/kg 5FU intravenously (WBC, platelets, hemoglobin); assay: Effect of angiotensin fragments and ACE inhibitor on recovery after chemotherapy (Example 4); assay type: in vivo; settings: for relative effect on increase in WBC (ranking of active agents): throughout the experimental period
Method: The next study was designed to test the effect of angiotensin peptides and the angiotensin converting enzyme inhibitor, enalapril, on recovery of white blood cells, platelets and hemoglobin after chemotherapy, as well as on granulocyte-macrophage colony forming units (GM-CFU) in the blood and bone marrow.
Female […] mice (4 per group), 6-8 weeks old, were injected with 150 mg/kg 5FU intravenously. Administration of the peptides (AII (100 μg/kg/day), AII(1-7) (10 or 100 μg/kg/day), AII(1-5) (10 or 100 μg/kg/day), and AII(1-6) (100 μg/kg/day)), by subcutaneous injection, or enalapril (30 mg/kg/day) by oral gavage, was begun 2 days after administration of the antineoplastic and continued daily until 28 days after 5FU administration, at which time the mice were euthanized for evaluation of white blood cell numbers, platelets, hemoglobin levels and the number of GM-CFU in the bone marrow and peripheral blood. On days 7, 10, 14 and 21 after 5FU administration, blood was taken under anesthesia from the retro-orbital sinus to assess white blood cell number, platelet number, and hemoglobin levels.
The mice were bled from the retro-orbital sinus at days 7, 10, 14 and 21. The mice were anesthetized with Metofane (an inhaled anesthesia). Approximately 150-200 μl of blood were obtained from the retro-orbital sinus with a heparinzed capillary tube. The blood was then placed in a 1.7 ml microfuge tube containing 10 mM EDTA and held on ice until further processing.
One hundred μl of blood was pipetted into a centrifuge tube, to which 900 μl of distilled water was added. The blood and water were mixed by inversion and allowed incubate at 4° C. for 20 minutes. The tube was then centrifuged at 12000 rpm to precipitate the cellular debri for 20 to 30 minutes at room temperature. Twenty μl of the supernatant from this centrifugation was then added into triplicate wells of a 96 well plate containing 180 μl of distilled water. The optical density, was then read using a microplate reader at […].
Twenty μl of blood was mixed with 200 μl of red blood cell (RBC) lysing solution (0.83% NH4Cl, 10 mM EDTA, 0.5% NaHCO3). The mixture was then incubated for 10 minutes at 4° C. After this incubation, the supernatant was removed and the pellet was resuspended in 100 μl of PBS. To this, 100 μl of 0.04% trypan blue was added. This mixture was vortexed and the number of WBC (baseline was approximately 10^7 cells/ml) was evaluated by hematocytometer under light microscopy and the number: of platelets (baseline was approximately 2.5×10^8 platelets/ml) was evaluated by hematocytometer under phase contrast microscopy.
The blood was harvested by cardiac puncture on day 10 to assess mobilization of myeloid progenitors into the peripheral blood. The femurs and tibia were also collected and the bone marrow was harvested by flushing with PBS containing 2% fetal calf serum. After collection of the blood and bone marrow, the red blood cells were lysed with a hypotonic solution (described above), mixed with 0.04% trypan blue, and the number of nucleated cells assessed by hematocytometer under light microscopy. Aliquots of cells were then resuspended at 1×10^5 cells/ml (bone marrow) or 1×10^6 cells/ml Flood). […]

[3] = system: animals given intravenous 5FU (white blood cells, CFU-GM); assay: Effect of AII on white blood cell mobilization and recovery after 5-fluorouracil (Example 1); assay type: in vivo, mice; settings: AII 10 or 100 μg/kg/day s.c., started day -2, 0 or 2 relative to i.v. 5FU; day 7 or 14; all tissues tested (blood, spleen, thymus, bone marrow)
Method: This study was designed to test the effect of AII on the recovery of white blood cells in lymphoid organs and on the level of granulocyte macrophage precursors (CFU-GM) in the blood (ie: mobilization), spleen (mobilization), and bone marrow (recovery) after intravenous administration of 5-fluorouracil (5FU). […] The number of white blood cells in each of the lymphoid organs, or the number of CFU-GM present in all the organs except the thymus were then assessed.

[4] = system: female C57B1/6 mice treated with 200 mg/kg cytoxan; settings: 200 mg/kg cyclophosphamide i.v.
[5] = system: AT2 receptor; settings: cited from earlier work
[6] = system: patients with newly diagnosed breast cancer receiving doxorubicin and cyclophosphamide
[7] = filgrastim 5.0 μg/kg/day comparator arm

Tyr-Ile-His-Pro-Phe (YIHPF) [AII(4-8)]
effectiveness in tests [1]: not to be effective; also recorded: ineffective

Asp-Arg-Val-Tyr-Ile (DRVYI) [AII(1-5)]
platelets after administration ([2]; after i.v. 5FU): increase in platelets

Asp-Arg-Val-Tyr-Ile-His-Pro-Phe (DRVYIHPF) [AII]
white blood cell mobilization and/or recovery [3]: significantly enhanced
relative effect on increase in WBC (ranking of active agents) [2]: most profound effect

O=P1(N(CCCl)CCCl)NCCCO1 (stereo not shown) [cyclophosphamide, reference compound]
number of myeloid progenitors (GM-CFU) in the bone marrow after cyclophosphamide [4]: significantly reduced

DRVYIH [AII(1-6)]
relative effect on increase in WBC (ranking of active agents) [2]: least effective

CCOC(=O)[C@H](CCc1ccccc1)N[C@@H](C)C(=O)N1CCC[C@H]1C(=O)O [enalapril, reference compound]
relative effect on increase in WBC (ranking of active agents) [2]: least effective

Asp-Arg-Val-Tyr-Ile-Xaa-Pro-Phe (DRVYI[Phe(4-NH2)]PF) [(p-NH2-Phe)6-AII]
affinity for AT2 relative to other receptor subtype [5]: 100 times
binding characteristics in the experimental models tested [5]: comparable’ to AT2 antagonists

His-Pro-Phe (HPF) [AII(6-8)]
effectiveness in tests [1]: not to be effective

B1: Filgrastim: recombinant G-CSF (NEUPOGEN, Amgen, Inc.), comparator arm (protein, UniProt P09919 31-207, looked up)
Granulocyte …: TPLGPASSLPQSFLLKCLEQVRKIQGDGAALQEKLVSECATYKLCHPEELVLLGHSLGIPWAPLSSCPSQALQLAGCLSQLHSGLFLYQGLLQALEGISPELGPTLDTLQLDVADFATTIWQQMEELGMAPALQPTQGAMPAFASAFQRRAGGVLVASHLQSFLEVSYRVLRHLAQP
modifications: filgrastim, N-terminal methionine
Alopecia (frequency by treatment group) ([6]; chemotherapy patients): 40%
Anemia (frequency by treatment group) ([6]; chemotherapy patients): 60%
Fatigue (frequency by treatment group) ([6]; chemotherapy patients): 80%
Headache (frequency by treatment group) ([6]; chemotherapy patients): 60%
Myalgia/Muscle-skeletal pain (frequency by treatment group) ([6]; chemotherapy patients): 60%
Nausea (frequency by treatment group) ([6]; chemotherapy patients): 100%
Stomatitis (frequency by treatment group) ([6]; chemotherapy patients): 60%
Vomiting (frequency by treatment group) ([6]; chemotherapy patients): 60%
Toxicity: ANC < 1000/μl (frequency) [6, 7]: 40%
Toxicity: Hgb < 10 gm/dl (frequency) [6, 7]: 60%
Toxicity: Lymph < 500/μl (frequency) [6, 7]: 80%
Toxicity: Platelet < 80 K/μl (frequency) [6, 7]: 60%
Toxicity: WBC < 2000/μl (frequency) [6, 7]: 60%
frequency of grade 3-4 neutropenia ([6]; filgrastim compared to AII(1-7)): lower frequency
change in platelet number ([6]; patients that received filgrastim, more pronounced in subsequent cycles): time dependent decrease in platelet number
